Data set [1] concerns the target T1, His-GlnR (Mycobacterium smegmatis (mc2 155?)) (UniProt A0R4C4).
T1 sequence: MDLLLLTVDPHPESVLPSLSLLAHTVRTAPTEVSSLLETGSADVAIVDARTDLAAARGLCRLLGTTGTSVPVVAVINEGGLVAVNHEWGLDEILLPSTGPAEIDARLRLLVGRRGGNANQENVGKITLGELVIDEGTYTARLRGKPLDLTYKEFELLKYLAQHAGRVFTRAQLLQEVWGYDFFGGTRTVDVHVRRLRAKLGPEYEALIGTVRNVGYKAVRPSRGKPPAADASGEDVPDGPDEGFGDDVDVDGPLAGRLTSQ
Nature of the data set: EMSA. The settings on record: EMSA: 0.4 ng DIG-labelled DNA, 0-0.9 ug His-GlnR, 0.5 ug poly d(A-T), 25 mM Hepes pH 7.9, 150 mM NaCl, 2.5 mM MgCl2, 37 C, 15 min.

The target in another data set is T2, His-GlnR (Mycobacterium smegmatis, UniProt A0R4C4 1-261).
T2 sequence: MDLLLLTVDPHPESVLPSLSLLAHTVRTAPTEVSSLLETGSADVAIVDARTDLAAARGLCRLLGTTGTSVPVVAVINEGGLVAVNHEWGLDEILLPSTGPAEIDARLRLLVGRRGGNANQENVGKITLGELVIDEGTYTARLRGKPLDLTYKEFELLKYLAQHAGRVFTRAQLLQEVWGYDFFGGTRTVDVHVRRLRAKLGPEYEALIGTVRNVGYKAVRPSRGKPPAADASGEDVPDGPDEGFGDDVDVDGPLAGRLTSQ
Nature of the data set: EMSA; EMSA: 0.4 ng DIG-labelled DNA, 0-0.9 ug His-GlnR, 0.5 ug poly d(A-T), 25 mM Hepes pH 7.9, 150 mM NaCl, 2.5 mM MgCl2, 37 C, 15 min. Particulars: protein: recombinant; tags: N-terminal His6 (pET28b); chain copies: 2; label: DIG 3'-end; blunt.

For “AGCTTGCCTACGAGCTCGAGGAGGCGCGGCCCTGGGCGCGCATACAAGATGTCACCGCGACCAAGCAGCCGCGTAAGCGGGCCGCGAAGAAGGCCACGAAAACCACGGAGTAGGGCACAAACCGGCGTGGCGCGTGACATGACCCCGTAACCCGGGCCGTGTCCTGTTAACGAACTCGACACCGCGAACGGCTGCGGGTGAAACATCGGGCTCGCAGCATCCCTCATT (double strand) [peak 21 MSMEG2522 promoter]”, the binding entry in data set [1] is listed as “binds”. Still for that read-out and setting: for “AAGCCGGATCCAGACGTGTGTTTCCGCGGCATCGGGCGACTGTGTGCTCGATGTTTAGACTTTACTGCTTGGTAACCTACGGAGCCGTAGGTTACGGTAGCGTAGGTAGACGAAAGGAGGGTTGCCAATGGCTGTTACCGACGTCCCGGCGTTCGCGCATCTGACCGAAGCCGATATCGAGAACCTGGGTATCGAGC (double strand) [peak 13 MSMEG1886 promoter]” the value was “binds”; for “GAGTGTTTGCGGGGCGTTACAGCCGGCGTTGGCTGTGCAACGACCTGTGCTTTGTCGGCGGGAAACATGAGCGTAACAGTGATCGGGATTGCGTTCACTTTCCGGAAACGCAACGGCAGCACCGGCGAAACGCCGGCAACAGAATCTCATCGGGAGGCCGATCCGTCGGCGCACTTCCCAAGGAGGTTCACACAAA (double strand)”, “binds”; for “AACGGTGTGCTTCCTCCGCTGTAGGTGGATCACCGCGTGAAGCGGGTGACCGGTGCAGGGTCGGCGCAACTTACTGCGCTTGGAAAATGCTCGCGCAGGAACGTTTCGGTGGATCCCGTCGGCAATGTCGGTGACGTTAACTCTGCACGGCCCCGCGTTACGTTGTGGTGACCTGACGCAACGGATTTCGTTGTGTGTCCGGTAG (double strand) [peak 22 MSMEG2526 promoter]”, “binds”. Same read-out and setting: then “GCGCTGCTGGTCATGGGTTTTCTCTCTGGCTAGGGGCGCTGCCGCCAGCTCTTACCTGTCAGATGACAGATAACAATGGGCGCGTGTCCTCGGCGTCACCCGAATGTTTCGTTCATGTAGCCGTCGGTAAGCATTCGGTTGCAGAACCCTCACCGCCCGTGGGCCTGTCACAATCGCCGGTATGCCCGCCCCCGACCTCGTGCAGCGCCACATCGACG (double strand) [peak 17 MSMEG2184 promoter]”, with “binds”. As for “GACGCGTCCATTCGGTTGTCCTCCCCGTTGTCGACGGGCCCGAAGCTACCCACGCCATGTTGCGACGACGTTGCGGTTGCGTTCGAACCCGTTGACATCAGCCAGAATTGACGCACGCGTCGGACTACCAGCGGTAGTCGAGGAACTTCCCGTCGAAGGTCACCACCACCCGGTCCCCGTCTGGATCGGGACGACGCTGGATGTCCACCTTGAAGTTGATGGCGCTCATG (double strand) [peak 42 MSMEG5358 promoter]”, in data set [1], the binding result was “binds”.

Regarding “GTACGGGTCGCGCACCTTGTCGGTGAGGATGAGGATCGCATCGACGATGCCCCAGATGAAGGCACCGATGCCACACGTCACCAGGCCCACGATCAGCTGCGCGATGCCGAGCCCGGTCTGCCCCAGATAGATCCGCCCGAACCCGACGAAACCGACCAGGCCGATCAACTGCAACAGGC (double strand) [MSMEG3224 promoter (negative control)]”, the binding entry in data set [1] is reported as “no binding”.

B1: Peak 24 GG (dsDNA)
DNA 1: TCATGTCGAGGTTAGGTTGTTCGTCGGACACAGACATT
DNA 2: AATGTCTGTGTCCGACGAACAACCTAACCTCGACATGA
Consider B1, for which, in the data set with His-GlnR, the binding result was “no binding”.

B2: Peak 24 G (dsDNA)
DNA 1: TCATGTCGAGGTTAGTTTGTTCGTCGCACACAGACATT
DNA 2: AATGTCTGTGTGCGACGAACAAACTAACCTCGACATGA
Take B2: the binding result in the data set with His-GlnR was “no binding”.

B3: Peak 2 GG (dsDNA)
DNA 1: GCAATCGCGGGGTAGGGCCGTGGAAGGAGAGCCTGCCT
DNA 2: AGGCAGGCTCTCCTTCCACGGCCCTACCCCGCGATTGC
With B3, in the data set with His-GlnR, the binding result was “no binding”.

B4: Peak 2 G (dsDNA)
DNA 1: GCAATCGCGGGGTAGCGCCGTGGAAGCAGAGCCTGCCT
DNA 2: AGGCAGGCTCTGCTTCCACGGCGCTACCCCGCGATTGC
B4: the binding result in the data set with His-GlnR is reported as “no binding”.

The values above are taken from article PMC3662644, “Genome wide analysis of the complete GlnR nitrogen-response regulon in Mycobacterium smegmatis”.
